Laboratory results reported in patent publication US20260117202A1.
“And” between values parts separate entries of the source, which are not always exact repeats. Equal values may be shown once.

Columns and labels:
FHCS-4 (RSV strain A2) [1] = molecular target: FHCS-4 (RSV strain A2) (UniProt P03420); experiment: ELISA; F coated 1250 ng/ml; stored -80° C.
FHCS-1 (RSV strain A2) [2] = molecular target: FHCS-1 (RSV strain A2) (UniProt P03420); experiment: ELISA; F coated 1250 ng/ml; stored -80° C.
FHCS-2 (RSV strain A2) [3] = molecular target: FHCS-2 (RSV strain A2) (UniProt P03420); experiment: ELISA; F coated 1250 ng/ml; stored -80° C.
FHCS-4 (RSV strain A2) [4] = molecular target: FHCS-4 (RSV strain A2) (UniProt P03420); experiment: ELISA; F coated 78.13 ng/ml; stored 37° C. 2 W
FHCS-1 (RSV strain A2) [5] = molecular target: FHCS-1 (RSV strain A2) (UniProt P03420); experiment: ELISA; F coated 78.13 ng/ml; stored 37° C. 2 W
FHCS-2 (RSV strain A2) [6] = molecular target: FHCS-2 (RSV strain A2) (UniProt P03420); experiment: ELISA; F coated 78.13 ng/ml; stored 37° C. 2 W
FHCS-4 (RSV strain A2) [7] = molecular target: FHCS-4 (RSV strain A2) (UniProt P03420); experiment: ELISA; F coated 625 ng/ml; stored -80° C.
FHCS-1 (RSV strain A2) [8] = molecular target: FHCS-1 (RSV strain A2) (UniProt P03420); experiment: ELISA; F coated 625 ng/ml; stored -80° C.
FHCS-2 (RSV strain A2) [9] = molecular target: FHCS-2 (RSV strain A2) (UniProt P03420); experiment: ELISA; F coated 625 ng/ml; stored -80° C.
FHCS-4 (RSV strain A2) [10] = molecular target: FHCS-4 (RSV strain A2) (UniProt P03420); experiment: ELISA; F coated 78.13 ng/ml; stored -80° C.
FHCS-2 (RSV strain A2) [11] = molecular target: FHCS-2 (RSV strain A2) (UniProt P03420); experiment: ELISA; F coated 78.13 ng/ml; stored -80° C.
FHCS-4 (RSV strain A2) [12] = molecular target: FHCS-4 (RSV strain A2) (UniProt P03420); experiment: ELISA; F coated 625 ng/ml; stored 37° C. 2 W
FHCS-1 (RSV strain A2) [13] = molecular target: FHCS-1 (RSV strain A2) (UniProt P03420); experiment: ELISA; F coated 625 ng/ml; stored 37° C. 2 W
FHCS-2 (RSV strain A2) [14] = molecular target: FHCS-2 (RSV strain A2) (UniProt P03420); experiment: ELISA; F coated 625 ng/ml; stored 37° C. 2 W
[15] = molecular target: wild-type RSV F protein 2 before artificial mutation (RSV strain A2) (UniProt P03420); experiment: sandwich ELISA, AM14 coated, F at 2 µg/ml
FHCS-1 (RSV strain A2) [16] = molecular target: FHCS-1 (RSV strain A2) (UniProt P03420); experiment: ELISA; F coated 312.5 ng/ml; stored -80° C.
FHCS-4 (RSV strain A2) [17] = molecular target: FHCS-4 (RSV strain A2) (UniProt P03420); experiment: ELISA; F coated 5000 ng/ml; stored -80° C.
FHCS-1 (RSV strain A2) [18] = molecular target: FHCS-1 (RSV strain A2) (UniProt P03420); experiment: ELISA; F coated 5000 ng/ml; stored -80° C.
FHCS-2 (RSV strain A2) [19] = molecular target: FHCS-2 (RSV strain A2) (UniProt P03420); experiment: ELISA; F coated 5000 ng/ml; stored -80° C.
FHCS-4 (RSV strain A2) [20] = molecular target: FHCS-4 (RSV strain A2) (UniProt P03420); experiment: ELISA; F coated 2500 ng/ml; stored -80° C.
FHCS-1 (RSV strain A2) [21] = molecular target: FHCS-1 (RSV strain A2) (UniProt P03420); experiment: ELISA; F coated 2500 ng/ml; stored -80° C.
FHCS-2 (RSV strain A2) [22] = molecular target: FHCS-2 (RSV strain A2) (UniProt P03420); experiment: ELISA; F coated 2500 ng/ml; stored -80° C.
FHCS-4 (RSV strain A2) [23] = molecular target: FHCS-4 (RSV strain A2) (UniProt P03420); experiment: ELISA; F coated 10000 ng/ml; stored 37° C. 4 W
FHCS-1 (RSV strain A2) [24] = molecular target: FHCS-1 (RSV strain A2) (UniProt P03420); experiment: ELISA; F coated 10000 ng/ml; stored 37° C. 4 W
FHCS-2 (RSV strain A2) [25] = molecular target: FHCS-2 (RSV strain A2) (UniProt P03420); experiment: ELISA; F coated 10000 ng/ml; stored 37° C. 4 W
FHCS-4 (RSV strain A2) [26] = molecular target: FHCS-4 (RSV strain A2) (UniProt P03420); experiment: ELISA; F coated 5000 ng/ml; stored 37° C. 4 W
FHCS-1 (RSV strain A2) [27] = molecular target: FHCS-1 (RSV strain A2) (UniProt P03420); experiment: ELISA; F coated 5000 ng/ml; stored 37° C. 4 W
FHCS-2 (RSV strain A2) [28] = molecular target: FHCS-2 (RSV strain A2) (UniProt P03420); experiment: ELISA; F coated 5000 ng/ml; stored 37° C. 4 W

Substance: Synagis® (antibody)
- OD value (FHCS-4 (RSV strain A2) [1]): 0.321 OD and 0.328 OD
- OD value (FHCS-1 (RSV strain A2) [2]): 0.635 OD and 0.642 OD
- OD value (FHCS-2 (RSV strain A2) [3]): 0.928 OD
- OD value (FHCS-4 (RSV strain A2) [4]): 0.018 OD and 0.015 OD
- OD value (FHCS-1 (RSV strain A2) [5]): 0.01 OD and 0.015 OD
- OD value (FHCS-2 (RSV strain A2) [6]): 0.018 OD and 0.022 OD
- OD value (FHCS-4 (RSV strain A2) [7]): 0.11 OD
- OD value (FHCS-1 (RSV strain A2) [8]): 0.161 OD and 0.154 OD
- OD value (FHCS-2 (RSV strain A2) [9]): 0.409 OD and 0.307 OD
- OD value (FHCS-4 (RSV strain A2) [10]): 0.008 OD
- OD value (FHCS-2 (RSV strain A2) [11]): 0.016 OD
- OD value (FHCS-4 (RSV strain A2) [12]): 0.187 OD and 0.166 OD
- OD value (FHCS-1 (RSV strain A2) [13]): 0.123 OD and 0.125 OD
- OD value (FHCS-2 (RSV strain A2) [14]): 0.211 OD and 0.227 OD

Substance: AM14 monoclonal antibody
- OD value [15]: 0.01 OD
- OD value (FHCS-1 (RSV strain A2) [16]): 0.004 OD and 0.008 OD
- OD value (FHCS-4 (RSV strain A2) [17]): 0.252 OD and 0.209 OD
- OD value (FHCS-1 (RSV strain A2) [18]): 0.902 OD and 0.775 OD
- OD value (FHCS-2 (RSV strain A2) [19]): 0.985 OD and 0.796 OD
- OD value (FHCS-4 (RSV strain A2) [20]): 0.008 OD and 0.007 OD
- OD value (FHCS-1 (RSV strain A2) [21]): 0.034 OD and 0.039 OD
- OD value (FHCS-2 (RSV strain A2) [22]): 0.051 OD and 0.056 OD
- OD value (FHCS-4 (RSV strain A2) [23]): 1.76 OD and 2.01 OD
- OD value (FHCS-1 (RSV strain A2) [24]): 1.87 OD and 2.17 OD
- OD value (FHCS-2 (RSV strain A2) [25]): 2.11 OD and 2.23 OD
- OD value (FHCS-4 (RSV strain A2) [26]): 0.665 OD and 0.438 OD
- OD value (FHCS-1 (RSV strain A2) [27]): 1.17 OD and 1.33 OD
- OD value (FHCS-2 (RSV strain A2) [28]): 1.95 OD and 1.48 OD
